Assays:
[1] = molecular target: V66A CzrA (Staphylococcus aureus); assay: SEC
[2] = molecular target: L68A CzrA (Staphylococcus aureus); assay: SEC
[3] = molecular target: V66A/L68V CzrA (Staphylococcus aureus); assay: SEC
[4] = molecular target: L68V CzrA (Staphylococcus aureus); assay: SEC
V66A CzrA = V66A CzrA (Staphylococcus aureus, UniProt O85142 1-106, V66A); assay: fluorescence anisotropy
H96C CzrA = H96C CzrA (Staphylococcus aureus, UniProt O85142 1-106, H96C); assay: fluorescence anisotropy

V66A CzrA (natural protein)
stoichiometry N [1]: 2

L68A CzrA (natural protein)
stoichiometry N [2]: 2

V66A/L68V CzrA (natural protein)
stoichiometry N [3]: 2

L68V CzrA (natural protein)
stoichiometry N [4]: 2

B1: 28-bp native CzrO (dsDNA)
DNA 1: TAATATATGAACAAATATTCAGATGAAA
DNA 2: TTTCATCTGAATATTTGTTCATATATTA
binding signal (V66A CzrA): 460 fold tighter than Zn2 wild-type CzrA
binding result (H96C CzrA): binds
